Earlier results, collected in patent publication US9545449B2, “Site-specific labeling and targeted delivery of proteins for the treatment of cancer” (Advanced Proteome Therapeutics Inc., priority 2012, dated 2017).

Settings: binding to phosphatidylserine; from Thiagarajan and Tait, J. Biol. Chem. 265:17420-17423 (1990); read-out: Kd (affinity for PS)

B1: Annexin V: human annexin V (SEQ ID NO:1) (Accession P08758); phosphatidylserine-binding protein (protein, listed as Homo sapiens)
chain: MAQVLRGTVTDFPGFDERADAETLRKAMKGLGTDEESILTLLTSRSNAQRQEISAAFKTLFGRDLLDDLKSELTGKFEKLIVALMKPSRLYDAYELKHALKGAGTNEKVLTEIIASRTPEELRAIKQVYEEEYGSSLEDDVVGDTSGYYQRMLVVLLQANRDPDAGIDEAQVEQDAQALFQAGELKWGTDEEKFITIFGTRSVSHLRKVFDKYMTISGFQIEETIDRETSGNLEQLLLAVVKSIRSIPAYLAETLYYAMKGAGTDDHTLIRVMVSRSEIDLFNIRKEFRKNFATSLYSMIKGDTSGDYKKALLLLCGEDD
Kd: 1.7 nM
